Sequences and labels used below:
B1: DOM14-63 (other)
chain: DIQMTQSPSSLSASVGDRVTITCRASQNISRGLRWYQQKPGKAPKLLIYHASKLQSGVPSRFSGSGSGTDFTLTISSLQPEDFATYYCQQYKVFPGTFGQGTKVEIKR
notes: Anti-CD56 dAb monomer
B2: DOM14-23 (other)
chain: DIQMTQSPSSLSASVGDRVTITCRASQDIFPFLNWYQQKPGKAPELLIYRASILHSGVPSRFSGSGSGTDFTLTISSLQPEDFATYYCQQIARSPRTFGQGTKVEIKR
notes: Anti-CD56 dAb
B3: DOM14-62 (other)
chain: DIQMTQSPSSLSASVGDRVTITCRASQNISYHLVWYQQKPGKAPKLLIYSSSNLQSGVPSRFSGSGSGTDFTLTISSLQPEDLATYYCQQLASWPHTLGQGTKVEIKR
notes: Anti-CD56 dAb monomer
B4: DOM14-68 (other)
chain: DIQMTQSPSSLSASVGDRVTITCRASQEISGELTWYQQKPGKAPKLLIYFSSILQSGVPSRFSGSGSGTDFTLTISSLQPEDFATYYCQQRKLRPYTFGQGTKVEIKR
notes: Anti-CD56 dAb monomer
B5: DOM14-70 (other)
chain: DIQMTQSPSSLSASVGDRVTITCRASQEIGQWLNWYQQKPGKAPKLLIYWGSELQSGVPSRFSGSGSGTDFTLTISSLQPEDFATYYCQQVSRNPFTFGQGTKVEIKR
notes: Anti-CD56 dAb monomer
B6: DOM14-57 (other)
chain: DIQMTQSPSSLSASVGDRVTITCRASQQIDDYLNWYQQKPGKAPKLLIYWTSLLQSGVPSRFSGSGSGTDFTLTISSLQPEDFATYYCQQSAHRPFTFGQGTKVEIKR
notes: Anti-CD56 dAb monomer
B7: DOM13-57 (other)
chain: DIQMTQSPSSLSASVGDRVTITCRASQGIMYHLRWYQQKPGKAPRLLIYHGSTLQSGVPARFSGSGSGTDFTLTISSLQPEDFATYYCQQTWNAPLTFGQGTKVEIKR
notes: Anti-CEA dAb monomer
B8: DOM13-65 (other)
chain: DIQMTQSPSSLSASVGDRVTITCRASQSIGMLLSWYQQKPGKAPKLLIYAVSRLQSGVPSRFSGSGSGTDFTLTISSLQPEDYATYYCQQMQRPPITFGQGTKVEIKR
notes: Anti-CEA dAb monomer
B9: DOM13-64 (other)
chain: DIQMTQSPSSLSASVGDRVTITCRASQSIGTLLNWYQQKPGKAPKLLIYASSRLQSGVPSRFSGSGSGTDFTLTISSLQPEDFATYYCQQMNRVPITFGQGTKVEIKR
notes: Anti-CEA dAb monomer
B10: DOM13-93 (other)
chain: DIQMTQSPSSLSASVGDRVTITCRASQDIGNMLAWYQQKPGKAPKPLIYYASYLQSGVPSRFSGSGSGTDFTLTISSLQPEDFATYYCQQMRDYPVTFGQGTKVEIKR
notes: Anti-CEA dAb monomer
B11: DOM13-95 (other)
chain: DIQMSQSPSSLSASVGDRVTITCRASQDIGNMLAWYQQKPGKAPKPLIYYASYLQSGVPSRFSGSGSGTDFTLTISSLQPEDFATYYCQQLGAKPHTFGQGTKVEIKR
notes: Anti-CEA dAb monomer
B12: DOM13-58 (other)
chain: DIQMTQSPSSLSASVGDRVTITCRASQGIGNSLRWYQQKPGKAPKLLIYYSSHLQSGVPSRFSGSGSGTDFTLTISSLQPEDFATYYCQQIRTKPFTFGQGTKVEIKR
notes: Anti-CEA dAb monomer
B13: DOM11-30-2 (other)
chain: DIQMTQSPSSLSASVGDRVTITCRTSQKIENDLAWYQQKPGKAPKLLIYYTSILQSGVPSRFSGSGSGTDFTLTISSLQPEDFATYYCQQRRYVPATFGQGTKVEIKR
B14: DOM11-30-1 (other)
chain: DIQMTQSPSSLSASVGDRVTITCRASLKIENDLAWYQQKPGKAPKLLIYYTSILQSGVPSRFSGSGSGTDFTLTISSLQPEDFATYYCQQRRYAPATFGQGTKVEIKR
B15: DOM11-30-3 (other)
chain: DIQMTQSPSSLSASVGDRVTITCRASQKIENDLAWYQQKPGNAPKLLIYYTSILHSGVPSRFSGSGSGTDFTLTISSLQPEDFATYYCQQRRYVPATFGQGTKVEIKR
B16: DOM11-3-1 (other)
chain: DIQMTQSPSSLSASVGDRVTITCRASHNIDSRLSWYQQKPGKAPKLLIYRASVLQSGVPSRFRGSGSGTDFTLTISSLQPEDFATYYCQQWDMFPLSFGQGTKVEIKR
B17: DOM11-3-2 (other)
chain: DIQMTQSPSSLSASVGDRVTITCRASQNIDSRLSWYQQKPGKAPKLLIYRTSVLQSGVPSRFSGSGSGTDFTLTISSLQPEDFATYYCQQWDMFPLMFGQGTKVEIKR
B18: DOM11-39 (other)
chain: DIQMTQSPSSLSASVGDRVTITCRASQPIDGNLRWYQQKPGKAPRLLIYFTSILQSGVPSRFSGSGSGTDFTLTISSLQPEDFATYYCQQHRHWPATFGQGTKVEIKR
B19: DOM11-37 (other)
chain: DIQMTQSPSSLSAFVGDRVTITCRASQDIEGQLRWYQQKPGKAPKLLIYFGSLLQSGVPSRFSGSGSGTVYTLTISSLQPEDFATYYCQQSHLFPATFGQGTKVEIKR
notes: Anti-CD38 dAb monomer
B20: DOM11-38 (other)
chain: DIQVTQSPSSLSASVGDRVTITCRASQEISSCLNWYQQKPGKAPKLLIYCTSVLQSGVPSRFSGSGSGTDFTLTISSLQPEDFATYYCQQRFGNPLTFGQGTKVEIKR
notes: Anti-CD38 dAb monomer
B21: DOM11-32 (other)
chain: DIQMTQSPSSLSASVGDRVTITCRASQWIGDSLVWYQQKPGKAPKLLIYFGSILQSGVPSRFSGSGSGTDFTLTISSLQPEDFATYYCQQHKTSPSTFGQGTKVEIKR
notes: Anti-CD38 dAb monomer
B22: DOM11-24 (other)
chain: DIQMTQSPSSLSASVGDRVTITCRASQEIHDYLSWYQQKPGKAPKLLIYLSSRLQSGVPSRFSGSGSGTDFTLTISSLQPEDFATYYCQQYHKGPYTFGQGTKVEIKR
notes: Anti-CD38 dAb monomer

Data on 22 molecules can be found in patent US20100021473A1 (DOMANTIS, published 2010).

One experiment addresses T1, CD56 immobilised on Biacore CM5 chip (UniProt P13591 20-718, limits assumed).
T1 construct: also called DOM14
The experiment is described as follows: Biacore, CD56 immobilised. How it is done:
(§1) Anti-CD38, anti-CEA and anti-CD56 dAbs that were identified as FACS positive clones were in addition analysed by Biacore using the following procedure. The CM5 chip surface was activated by flushing 1:1 EDC/NHS (0.4M1-ethyl-3-(3-dimenthylaminopropyl)-carbodiimide in water; 0.1 M N-hydroxysuccinimide in water) at a flow rate of 5 uL/min for 10 minute contact time. CD38 was immobilised at 500 nM in Acetate buffer pH4 at 5 uL/min this was repeated until the RUs reached between 500 and 1000 (low density). CEA and CD56 were coupled in acetate buffer pH 4.5. Any excess reactive groups were deactivated by running 1M ethanolamine-HCl over the CM5 chip (again 5 uL/min for 7 mins). The affinities of the anti-CD38, anti-CEA and anti-CD56 dAbs were measured on the biacore as described above.
(In general: In SPR one partner is held on a chip, and binding of the other changes the refractive index at the surface.)
As usually defined, the Kd is a measure of binding affinity in units of concentration. Read a low Kd as a tighter complex. B1: binding was characterised by a dissociation constant (Kd) of 100 nM.
The molecule B2 returned a Kd of 100 to 200 nM.
For B3, the binding result is given as “no binding”.
Turning to B4, the binding result was “no binding”.
For the molecule B5, the Kd lay within 500 to 800 nM.
On to B6, for which the binding result was “no binding”.

Another experiment addresses T2, NCA on H647 cells (UniProt P40199 35-320, limits assumed).
T2 construct: whole, on cells; Its identity is an inference
T2 sequence (looked up): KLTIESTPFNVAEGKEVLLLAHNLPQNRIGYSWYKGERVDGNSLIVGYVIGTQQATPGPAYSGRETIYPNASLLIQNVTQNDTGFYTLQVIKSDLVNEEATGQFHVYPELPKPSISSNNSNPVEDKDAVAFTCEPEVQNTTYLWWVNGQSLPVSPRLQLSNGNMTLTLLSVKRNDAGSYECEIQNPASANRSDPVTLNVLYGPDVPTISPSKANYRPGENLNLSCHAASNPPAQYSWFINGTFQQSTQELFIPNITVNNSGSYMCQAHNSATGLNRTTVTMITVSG
The experiment is described as follows: FACS on H647 cells (CEA-/NCA+). How it is done:
(§2) All dAbs were analysed by FACS on antigen positive and negative cell lines using the following method.
(§3) The determination of cell binding by FACS was carried out as follows: cells were centrifuged at 250 g for 5 minutes and the growth medium was removed. The cells were resuspended in FACS incubation buffer at 4° C. at a density of 2×10⁶ cells/ml. The cells were blocked by incubating for 15 minutes at 4° C. in FACS incubation buffer. Fifty microliters of 2× stock of primary antibody (anti-CD38 FITC, anti-CD138 FITC or mIgG1 FITC conjugated isotype control (all BD Biosciences) was added; or dAb was added to cells in FACS incubation buffer and incubated for 30-60 minutes at 4° C. The cells were then washed once in FACS incubation buffer. One hundred microliters of secondary antibody (rabbit anti-Vk) was added to cells in FACS incubation buffer and incubated 30-60 minutes at 4° C. The cells were washed once in FACS incubation buffer. Then 100 ul of 1× tertiary antibody was added to the cells in FACS incubation buffer and incubated for 30-60 mins at 4° C. (for dAbs the tertiary antibody is anti-rabbit FITC (Sigma)). The cells were washed twice in FACS incubation buffer. The cell pellet was resuspend in 200 ul FACS incubation buffer+viable cell marker (BD Viaprobe). The cells were then analyzed by flow cytometry.
On to B7, for which the binding result was “no binding”.
For B8, the binding result was “no binding”.
For B9, the binding result is given as “no binding”.
Take B10: the binding result was “no binding”.
On to B11, for which the binding result is “no binding”.
In the case of B12, the binding result is listed as “no binding”.

The target of a further experiment is T3, CD38 immobilised on Biacore CM5 chip (UniProt P28907 43-300, limits assumed).
T3 construct: also called DOM11
Description: Biacore, CD38 immobilised. How it is done:
as §1
Affinity maturation libraries were created for the anti-CD38 dAbs DOM11-3 and DOM11-30 by error prone PCR. […] Initial screening was carried out by BIAcore (as described previously) and subsequently by FACS.
In turn, B13 showed a Kd of 62 to 76 nM.
As to B14, the Kd was found to be 19 nM.
The molecule B15 gave a Kd of 86 to 93 nM.
For the molecule B16, the Kd came to 62 nM.
Same read-out and setting: under B17 stands 130 to 160 nM.

Another experiment addresses T4, CD38 on cells (UniProt P28907 1-300).
T4 construct: whole, on cells; Endogenous CD38 on cell lines used in FACS or microscopy; also called DOM11; T10
The experiment is described as follows: FACS on RPMI cells (CD38+/138+). On the procedure:
as §2, §3
Turning to B18, the binding result is given as “binds”.
As to B19, the binding result is “binds”.
Consider B20, for which the binding result is recorded as “binds”.
B21: the binding result is given as “binds”.
On to B22, for which the binding result is recorded as “binds”.
